Measured values from IntAct's records for PubMed 21816275.

B1: Septum site-determining protein MinD (Escherichia coli (strain K12)), P0AEZ3 (parent)
chain: MARIIVVTSGKGGVGKTTSSAAIATGLAQKGKKTVVIDFDIGLRNLDLIMGCERRVVYDFVNVIQGDATLNQALIKDKRTENLYILPASQTRDKDALTREGVAKVLDDLKAMDFEFIVCDSPAGIETGALMALYFADEAIITTNPEVSSVRDSDRILGILASKSRRAENGEEPIKEHLLLTRYNPGRVSRGDMLSMEDVLEILRIKLVGVIPEDQSVLRASNQGEPVILDINADAGKAYADTVERLLGEERPFRFIEEEKKGFLKRLFGG

Variants of: B1
Conditions: with mine_ecoli minE

| effect of a mutation on the interaction | Variant |
| --- | --- |
| disrupting interaction | MARIIVVTSGKGGVGKTTSSAAIATGLAQKGKKTVVIDFDIGLRNLDLIMGCERRVVYDFVNVIQGDATLNQALIKDKRTENLYILPASQTRDKDALTREGVAKVLDDLKAMDFEFIVCDSPAGIETGALMALYFADEAIITTNPEVSSVRDSDRILGILASKSRRAENGEEPIKEHLLLTRYNPGRVSRGDMLSMEDVLEILRIKLVGVIPEDQSVLRASNQCEPVILDINADAGKAYADTVERLLGEERPFRFIEEEKKGFLKRLFGG [G224C] |
| disrupting interaction | MARIIVVTSGKGGVGKTTSSAAIATGLAQKGKKTVVIDFDIGLRNLDLIMGCERRVVYDFVNVIQGDATLNQALIKDKRTENLYILPASQTRDKDALTREGVAKVLDDLKAMDFEFIVCDSPAGIETGALMALYFADEAIITTNPEVSSVRDSDRILGILASKSRRAENGEEPIKEHLLLTRYNPGRVSRGDMLSMERVLEILRIKLVGVIPEDQSVLRASNQGEPVILDINADAGKAYADTVERLLGEERPFRFIEEEKKGFLKRLFGG [D198R] |
| disrupting interaction | MARIIVVTSGKGGVGKTTSSAAIATGLAQKGKKTVVIDFDIGLRNLDLIMGCERRVVYDFVNVIQGDATLNQALIKDKRTENLYILPASQTRDKDALTREGVAKVLDDLKAMDFEFIVCDSPAGIETGALMALYFADEAIITTNPEVSSVRDSDRILGILASKSRRAENGEEPIKEHLLLTRYNPGRVSRGDLLSMEDVLEILRIKLVGVIPEDQSVLRASNQGEPVILDINADAGKAYADTVERLLGEERPFRFIEEEKKGFLKRLFGG [M193L] |
| disrupting interaction | MARIIVVTSGKGGVGKTTSSAAIATGLAQKGKKTVVIDFDIGLRNLDLIMGCERRVVYDFVNVIQGDATLNQALIKDKRTENLYILPASQTRDKDALTREGVAKVLDDLKAMDFEFIVCDSPAGIETGALMALYFADEAIITTNPEVSSVRDSDRILGILASKSRRAENGEEPIKEHLLLTRYNPGRVSRGDMLSMEDVLEILRIKLVGVIPEDQSVLRASAQGEPVILDINADAGKAYADTVERLLGEERPFRFIEEEKKGFLKRLFGG [N222A] |
| disrupting interaction | MARIIVVTSGKGGVGKTTSSAAIATGLAQKGKKTVVIDFDIGLRNLDLIMGCERRVVYDFVNVIQGDATLNQALIKDKRTENLYILPASQTRDKDALTREGVAKVLDDLKAMDFEFIVCDSPAGIETGALMALYFADEAIITTNPEVSSVRDSDRILGILASKSRRAENGEEPIKEHLLLTRYNPGRVSRGYMLSMEDVLEILRIKLVGVIPEDQSVLRASNQGEPVILDINADAGKAYADTVERLLGEERPFRFIEEEKKGFLKRLFGG [D192Y] |
